“Also recorded” adds a separate entry of the source.
B1: HMGB1 (protein, UniProt P09429 1-215, looked up)
High mobility group protein B1: MGKGDPKKPRGKMSSYAFFVQTCREEHKKKHPDASVNFSEFSKKCSERWKTMSAKEKGKFEDMAKADKARYEREMKTYIPPKGETKKKFKDPNAPKRPPSAFFLFCSEYRPKIKGEHPGLSIGDVAKKLGEMWNNTAADDKQPYEKKAAKLKEKYEKDIAAYRAKGKPDAAKKGVVKAEKSKKKKEEEEDEEDEEDEEEEEDEEDEDEEEDDDDE
notes: purified protein; cytokine released from monocyte-macrophage and necrotic cells, ligand of RAGE

What was measured:
[1] = test system: diabetic CD1 mice; experiment: Wound closure after full-thickness excised wound in streptozotocin-diabetic CD1 mice; assay type: in vivo
Procedure: CD1 male mice were obtained from Charles River (Calco, LC, Italy). Mice were rendered diabetic by intraperitoneal injection of streptozotocin (Sigma-Aldrich, St Louis, Mo., USA) at 1.2 mg/30 g weight/day for 5 consecutive days. After 7 days, glycemia was measured and animals with glycemia of 200 to 400 mg/dl were selected for further studies. Mice were anesthetized with intraperitoneal injection of 2.5% Avertin (100% Avertin: 10 g of 2,2,2-tribromoethyl alcohol and 10 ml of tert-amyl alcohol, Sigma). Their dorsum was clipped free of hair and a full thickness wound of 3.5 mm diameter was created using a biopsy punch.
HMGB1 treatment was performed directly in the wound area by injecting 200 ng, 400 ng or 800 ng of purified protein (13) in 20 μl of saline solution at time immediately after wound. Control groups received 20 μl of saline solution in the wound. Glycyrrhyzin, GL (12) was administered topically in the wound area every two days from day 0 to day 14 after wound creation. The concentration used for each administration was 250 μg/mouse in 30 μl of PBS. Control mice received vehicle (PBS).
Animals were photographed at day 0, 3, 5, 6, 7, 10, and 14 after wound. Pictures were digitally processed and areas of wounds were calculated using the KS300 system (Zeiss, Jena GmbH, Germany). For each sample the percentage of wound closure was calculated as the ratio: […]
Where time 0 is the time immediately after the wound. The groups included 6 to 10 animals. Results are presented as mean±standard error. Statistical significance between two measurements was evaluated by unpaired Student's t test.

[2] = test system: normal CD1 mice; experiment: Wound closure after full-thickness excised wound in normal CD1 mice; assay type: in vivo; conditions: for wound area reduced by % of the initial size / wound closure / healing rate vs vehicle: normal mice; for wound area reduced by % of the initial size: GL 250 μg/mouse topically every two days; for wound closure / healing rate vs vehicle: GL 250 μg/mouse topically in wound area
[3] = test system: normal human fibroblasts; experiment: Chemotaxis assay (modified Boyden chamber), normal human fibroblasts; assay type: cell-based; conditions: HMGB1 200 ng/ml
Procedure: (§1) FIG. 9: Effect of HMGB1 on human fibroblasts and keratinocytes migration. Normal (A) and diabetic (B) fibroblasts were obtained from human biopsies. 0.4×10^6 cells/ml were placed in upper compartment of the modified Boyden chambers. HMGB1 (200 ng/ml) or PDGF (15 ng/ml) was added to the lower compartment and incubated for 6 hrs at 37° C. (C) Hacat cells were obtained from ATCC and migration experiments performed as described in (A-B). After staining with Giemsa solution, migrated cells were quantified by counting nuclei in five random microscope fields (40×). The data are expressed as migration index (fold increase in number of migrated cells relative to number of migrated cells in the absence of HMGB1 or PDGF) and are mean±SD of at least 4 independent experiments performed in triplicate. Statistical significance was evaluated by unpaired Student's t test. […]
(§2) The lower compartment of each chamber was filled with 28 μl DMEM with 0.1% BSA. […] Cells on five random fields on the lower face of the filter were counted at 40× magnification and migration index was calculated by dividing the number of migrated cells in the presence of chemoattractants by the cells migrated in response to DMEM with 0.1% BSA.

[4] = test system: diabetic human fibroblasts; experiment: Chemotaxis assay (modified Boyden chamber), diabetic human fibroblasts; assay type: cell-based; conditions: HMGB1 200 ng/ml
Procedure: as §1, §2

[5] = test system: keratinocytes (HaCat cell line); experiment: Chemotaxis assay (modified Boyden chamber), keratinocytes; assay type: cell-based, human; conditions: HMGB1 200 ng/ml
Procedure: FIG. 9: Effect of HMGB1 on human fibroblasts and keratinocytes migration. Normal (A) and diabetic (B) fibroblasts were obtained from human biopsies. 0.4×10^6 cells/ml were placed in upper compartment of the modified Boyden chambers. HMGB1 (200 ng/ml) or PDGF (15 ng/ml) was added to the lower compartment and incubated for 6 hrs at 37° C. (C) Hacat cells were obtained from ATCC and migration experiments performed as described in (A-B). After staining with Giemsa solution, migrated cells were quantified by counting nuclei in five random microscope fields (40×). The data are expressed as migration index (fold increase in number of migrated cells relative to number of migrated cells in the absence of HMGB1 or PDGF) and are mean±SD of at least 4 independent experiments performed in triplicate. Statistical significance was evaluated by unpaired Student's t test.
Hacat human cells were obtained according to (14). […]
as §2

Row | Molecule | wound closure vs saline ([1]; glycyrrhizin 250 μg in the wound area) | wound area reduced by % of the initial size ([2]; day 3) [%] | wound area reduced by % of the initial size ([2]; day 5) [%] | wound area reduced by % of the initial size ([2]; day 6) [%] | wound area reduced by % of the initial size ([2]; day 7) [%] | wound closure / healing rate vs vehicle [2] | wound closure / healing rate vs vehicle ([2]; listed as glycyrrhizin) | percentage of wound closure ([1]; HMGB1 200 ng, day 3 after wounding) [%] | percentage of wound closure ([1]; HMGB1 200 ng, day 5) [%] | percentage of wound closure ([1]; HMGB1 200 ng, day 6) [%] | healing rate vs saline ([1]; HMGB1 200 ng, p<0.03) | complete wound closure evident by ([1]; HMGB1 200 ng, same in saline group) [days] | wound closure compared to lower dose (200 ng) ([1]; HMGB1 400 ng in 20 ul, 3 days after wounding) | wound closure compared to dose of 200 ng ([1]; HMGB1 800 ng) | chemotactic effect (migration) [3] | wound closure ([2]; normal CD1 mice, HMGB1 200 ng in 20 μl injected in wound area immediately after wounding, vs saline) | percentage of wound closure ([2]; normal CD1 mice, HMGB1 200 ng, day 3 after wounding) [%] | percent of wound closure vs saline ([2]; normal CD1 mice, HMGB1 200 ng, day 5, p<0.03) | chemotactic effect (migration) [4] | chemotactic effect (migration) [5]
1 | CC1(C)[C@@H](O[C@H]2O[C@H](C(=O)O)[C@@H](O)[C@H](O)[C@H]2O[C@@H]2O[C@H](C(=O)O)[C@@H](O)[C@H](O)[C@H]2O)CC[C@]2(C)[C@H]3C(=O)C=C4[C@@H]5C[C@@](C)(C(=O)O)CC[C@]5(C)CC[C@@]4(C)[C@]3(C)CC[C@@H]12 [GL, Glycyrrhizin] | No significant differences; also recorded: did not significantly modify wound closure | 15±3.5 | 38.7±6 | 61.2±5.9 | 73.3±4.5 | slowed down wound closure | significantly lower | – | – | – | – | – | – | – | – | – | – | – | – | –
2 | B1 | – | – | – | – | – | – | – | 47.5±15.8 | 66.5±13 | 72.2±9 | significantly higher | ≤ 14 | larger wound closure | same effect | exhibited a chemotactic effect | increased wound closure | 30.5±8.5 | significantly higher | exhibited a chemotactic effect | exhibited a chemotactic effect
